Measurements taken from patent CN1869207A (INST OF BIOPHYSICS CAS, dated 2006).
Values joined by “and” are separate entries in the source; they are usually repeats but may differ in a detail not shown here. Identical values can stand only once.

How the values were obtained:
大肠杆菌表达的GST-MIF重组蛋白 [1] = target: T1, 大肠杆菌表达的GST-MIF重组蛋白 (human, UniProt P14174 1-115); assay: ELISA on coated GST-MIF (10 ug/ml); antibody concentration at 50% of the maximal reading is taken as the dissociation constant
T1 construct: Coating antigen (10 ug/ml) of the ELISA that gave all the dissociation constants; GST is placed N-terminal by the name GST-MIF; also called 人MIF; not shown: GST tag and vector-encoded residues from pET-41a
T1 sequence (looked up): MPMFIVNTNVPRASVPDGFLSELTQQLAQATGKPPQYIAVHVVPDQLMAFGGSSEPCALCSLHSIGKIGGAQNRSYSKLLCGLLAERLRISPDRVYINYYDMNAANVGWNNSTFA

大肠杆菌表达的GST-MIF重组蛋白 [2] = target: T1, 大肠杆菌表达的GST-MIF重组蛋白; assay: ELISA by the method of Example 1 (coated GST-MIF; concentration at 50% of the maximal reading)

| Binder | Kd (大肠杆菌表达的GST-MIF重组蛋白 [1]) | Kd (大肠杆菌表达的GST-MIF重组蛋白 [2]) |
| --- | --- | --- |
| 杂交瘤细胞株10C3 CGMCC No.1717分泌的单克隆抗体 (antibody, mouse IgG2b, V domains shown, the mouse constant regions are not; Hybridoma supernatant was used in the ELISA and ascites-purified antibody in the cell assays; also called 10C3Ab; anti-MIF) VH: QVQLEESGGALVKPGGSLKLSCAASGFTFSTYAMSWVRQTPEKRLEWVATISSGGDYTHYPDSVKGRFTISRDNARNTLYLQMSSLRSEDTAMFYCARPYYGSSYWFYDVWGAGTTVTVSS VL: DIVLTQTPVSIIASRGEKVTITCRARSSISSTYLHWYQQKPGSSPKLLIYRTSILASGVLDSFSGSGSETSDTLTISCMQDEVAATYYCQQGSSSPLTFGAGTKLELKR | 3 nM and 0.48 µg/mL |  |
| 人-鼠嵌合抗体ch-10C3 (antibody, V domains shown) VH: QVQLEESGGALVKPGGSLKLSCAASGFTFSTYAMSWVRQTPEKRLEWVATISSGGDYTHYPDSVKGRFTISRDNARNTLYLQMSSLRSEDTAMFYCARPYYGSSYWFYDVWGAGTTVTVSS VL: DIVLTQTPVSIIASRGEKVTITCRARSSISSTYLHWYQQKPGSSPKLLIYRTSILASGVLDSFSGSGSETSDTLTISCMQDEVAATYYCQQGSSSPLTFGAGTKLELKR |  | 0.003 µM |
| 抗MIF单链抗体10C3scFV (scFv, Heavy and light variable regions joined by a 15-residue Gly/Ser-rich linker; Expressed from pET-26b in BL21 with a 6xHis tag) scFv: QVQLEESGGALVKPGGSLKLSCAASGFTFSTYAMSWVRQTPEKRLEWVATISSGGDYTHYPDSVKGRFTISRDNARNTLYLQMSSLRSEDTAMFYCARPYYGSSYWFYDVWGAGTTVTVSSGSSGSGSSGSGSSGSDIVLTQTPVSIIASRGEKVTITCRARSSISSTYLHWYQQKPGSSPKLLIYRTSILASGVLDSFSGSGSETSDTLTISCMQDEVAATYYCQQGSSSPLTFGAGTKLELKR |  | 0.03 µM |
| 抗MIF的Fab片段10C3Fab (Fab, V domains shown) VH: QVQLEESGGALVKPGGSLKLSCAASGFTFSTYAMSWVRQTPEKRLEWVATISSGGDYTHYPDSVKGRFTISRDNARNTLYLQMSSLRSEDTAMFYCARPYYGSSYWFYDVWGAGTTVTVSS VL: DIVLTQTPVSIIASRGEKVTITCRARSSISSTYLHWYQQKPGSSPKLLIYRTSILASGVLDSFSGSGSETSDTLTISCMQDEVAATYYCQQGSSSPLTFGAGTKLELKR |  | 0.01 µM |
